Results on three molecules are retold here after patent publication US20250297032A1 (CONCEPT TO MEDICINE BIOTECH, published 2025).

Assay [1] addresses T1, human FAPα-His tag (Sino biological) (human, UniProt Q12884 26-760).
T1 construct: Bought protein; also called human FAPα-His protein; not shown: His tag
T1 sequence (looked up): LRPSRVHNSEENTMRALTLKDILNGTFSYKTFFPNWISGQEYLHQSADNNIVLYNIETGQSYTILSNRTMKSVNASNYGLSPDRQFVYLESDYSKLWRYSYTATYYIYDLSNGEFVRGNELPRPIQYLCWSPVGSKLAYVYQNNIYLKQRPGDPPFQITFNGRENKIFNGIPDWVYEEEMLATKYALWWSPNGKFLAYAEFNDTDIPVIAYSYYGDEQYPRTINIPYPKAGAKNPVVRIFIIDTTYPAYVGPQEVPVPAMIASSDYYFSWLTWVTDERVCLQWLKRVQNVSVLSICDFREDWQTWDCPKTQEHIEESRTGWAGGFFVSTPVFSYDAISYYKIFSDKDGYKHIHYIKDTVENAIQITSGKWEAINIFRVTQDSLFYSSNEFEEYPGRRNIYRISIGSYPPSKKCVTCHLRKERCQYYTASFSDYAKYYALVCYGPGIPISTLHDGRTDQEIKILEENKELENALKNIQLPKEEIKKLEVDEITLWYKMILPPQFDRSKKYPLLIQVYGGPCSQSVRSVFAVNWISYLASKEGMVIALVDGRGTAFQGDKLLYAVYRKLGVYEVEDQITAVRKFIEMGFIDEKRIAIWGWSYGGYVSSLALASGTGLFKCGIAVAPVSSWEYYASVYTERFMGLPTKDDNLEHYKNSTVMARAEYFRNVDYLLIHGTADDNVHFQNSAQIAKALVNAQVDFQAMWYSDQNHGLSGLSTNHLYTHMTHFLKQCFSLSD
The assay is described as follows: ELISA, coated human FAPα-His. As for the experimental part: Briefly, microtiter plates were coated with human FAPα-His protein at 0.5 ug/ml in PBS, 100 μl/well at 4° C. overnight, then blocked with 150 μl/well of 1% BSA. Three-fold dilutions of tested antibodies starting from 1 μg/ml were added to each well and incubated for 1 hour at 37° C. The plates were washed with PBS/Tween and then incubated with Anti-Human IgG (H&L) (GOAT) Antibody Peroxidase Conjugated for 30 mins at 37° C. After washing, the plates were developed with TMB substrate and analyzed by spectrophotometer at OD 450 nm. […] FAP-4B9 clone from Roche was served as positive control which labeled as FAPα-BMK.
Background: ELISA stands for enzyme-linked immunosorbent assay.

For assay [2], the target named is T2, human FAPα on CHO-K1-hFAPα cells (human, UniProt Q12884 1-760).
T2 construct: whole, on cells; also called cell-surface FAPα
T2 sequence (looked up): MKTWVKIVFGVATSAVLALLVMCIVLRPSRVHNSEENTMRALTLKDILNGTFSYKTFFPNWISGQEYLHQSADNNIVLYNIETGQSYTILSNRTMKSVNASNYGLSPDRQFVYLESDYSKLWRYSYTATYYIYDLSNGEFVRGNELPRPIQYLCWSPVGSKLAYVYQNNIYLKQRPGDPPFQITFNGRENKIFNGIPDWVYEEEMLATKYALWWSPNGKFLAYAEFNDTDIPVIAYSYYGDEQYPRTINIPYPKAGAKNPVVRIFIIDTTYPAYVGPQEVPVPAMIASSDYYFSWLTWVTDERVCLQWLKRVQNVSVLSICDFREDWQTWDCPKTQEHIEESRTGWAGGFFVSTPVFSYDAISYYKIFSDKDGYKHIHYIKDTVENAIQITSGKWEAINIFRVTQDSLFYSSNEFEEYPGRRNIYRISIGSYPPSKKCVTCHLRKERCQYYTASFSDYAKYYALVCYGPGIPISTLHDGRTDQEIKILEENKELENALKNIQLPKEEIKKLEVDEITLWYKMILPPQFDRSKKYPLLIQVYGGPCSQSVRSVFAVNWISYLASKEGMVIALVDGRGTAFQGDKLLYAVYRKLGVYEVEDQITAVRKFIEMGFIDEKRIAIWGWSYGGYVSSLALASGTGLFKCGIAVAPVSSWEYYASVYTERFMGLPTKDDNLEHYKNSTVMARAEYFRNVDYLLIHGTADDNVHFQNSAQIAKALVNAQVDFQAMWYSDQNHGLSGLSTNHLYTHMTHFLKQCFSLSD
The assay is described as follows: flow cytometry on CHO-K1-hFAPα cells. As for the experimental part: (§1) To evaluate the cell-based binding property to human FAPα, the tested antibodies were analyzed for their binding to CHO-K1-hFAPα by FACS. A total number of 1×10⁵ CHO-K1-hFAPα cells in each well were incubated with 4-fold serial diluted antibodies starting from 3 μg/ml for 30 minutes at 4° C. in FACS buffer. After wash by FACS buffer, PE conjugated-anti-human IgG antibody was added to each well and incubated at 4° C. for 30 minutes. After wash, MFI of PE was evaluated by MACSQuant Analyzer 16.
(In general: A flow cytometer gives signals particle by particle.)

Assay [3] addresses T2, human FAPα on CHO-K1-hFAPα cells. The assay is described as follows: flow cytometry on CHO-K1-hFAPα cells (MFI of PE). Set-up: unit not given beside the values. As for the experimental part: as §1
In assay [4] the target is T1, human FAPα-His tag (Sino biological). Put plainly: SPR (Biacore T200), mAb captured on Protein A chip, human FAPα-His as analyte. How it is done:
The binding of the tested antibodies to recombinant FAPα protein (human FAPα-his tag) was tested with Biacore using a capture method. The mAbs were captured using Protein A chip. A serial dilution of human FAPα-his tag protein was injected over captured antibody for 3 mins at a flow rate of 30 μl/min. The antigen was allowed to dissociate for 800s. All the experiments were carried out on a Biacore T200. Data analysis was carried out using the Biacore T200 evaluation software.
(In general: In SPR one partner is held on a chip, and binding of the other changes the refractive index at the surface.)

Assay [5] addresses T3, mouse FAPα-His protein (mouse, UniProt P97321 26-761, limits assumed).
T3 construct: not shown: His tag
T3 sequence (looked up): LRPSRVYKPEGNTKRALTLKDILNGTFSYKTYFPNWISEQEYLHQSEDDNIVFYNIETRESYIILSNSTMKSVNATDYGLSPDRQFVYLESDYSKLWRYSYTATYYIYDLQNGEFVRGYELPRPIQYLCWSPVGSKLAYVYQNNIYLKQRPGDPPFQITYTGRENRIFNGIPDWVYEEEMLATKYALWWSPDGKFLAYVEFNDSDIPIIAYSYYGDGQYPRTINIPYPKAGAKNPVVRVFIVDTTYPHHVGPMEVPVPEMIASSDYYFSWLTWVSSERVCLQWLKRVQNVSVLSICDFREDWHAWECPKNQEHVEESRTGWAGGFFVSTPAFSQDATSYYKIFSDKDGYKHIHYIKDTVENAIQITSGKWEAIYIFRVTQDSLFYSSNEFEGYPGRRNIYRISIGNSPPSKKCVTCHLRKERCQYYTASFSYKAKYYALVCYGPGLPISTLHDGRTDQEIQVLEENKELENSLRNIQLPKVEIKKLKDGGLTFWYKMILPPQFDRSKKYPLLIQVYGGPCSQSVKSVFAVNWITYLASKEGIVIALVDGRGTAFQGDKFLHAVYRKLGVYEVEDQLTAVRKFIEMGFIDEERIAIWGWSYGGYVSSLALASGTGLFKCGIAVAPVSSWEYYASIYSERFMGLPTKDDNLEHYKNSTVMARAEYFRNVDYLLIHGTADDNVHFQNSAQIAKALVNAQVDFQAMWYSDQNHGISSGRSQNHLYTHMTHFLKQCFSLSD
The assay is described as follows: ELISA, plate coated with mouse FAPα-His, anti-human IgG-HRP, OD 450 nm. How it is done: Briefly, microtiter plates were coated with mouse FAPα-His protein at 0.5 ug/ml in PBS, 100 μl/well at 4° C. overnight, then blocked with 150 μl/well of 1% BSA. Three-fold dilutions of tested antibodies starting from 1 μg/ml were added to each well and incubated for 1 hour at 37° C. The plates were washed with PBS/Tween and then incubated with Anti-Human IgG (H&L) (GOAT) Antibody Peroxidase Conjugated for 30 mins at 37° C. After washing, the plates were developed with TMB substrate and analyzed by spectrophotometer at OD 450 nm.

For assay [6], the target named is T1, human FAPα-His tag (Sino biological). Put plainly: competitive ELISA on coated human FAPα; competitor (detected): FAP-G14-Bio. How it is done: (§2) Competitive ELISA was carried out to classify the FAPα mAbs based on the binding epitope to human FAPα.
(§3) Briefly, microtiter plates were coated with human FAPα proteins at 0.5 μg/ml in PBS, 100 μl/well at 4° C. overnight, then blocked with 150 μl/well of 1% BSA. Serial dilutions of chimeric antibodies as well as biotin-conjugated reference mAb were added to each well and incubated for 1 hour at RT. The plates were washed with PBS/Tween and then incubate with streptavidin-HRP for 15 mins at RT. After washing, the plates were developed with TMB substrate and analyzed by spectrophotometer at OD 450 nm. According to the competition ability to reference mAbs (Benchmark, or “BMK”), all tested FAPα mAbs binds to the similar epitope as shown in Table 5.

Assay [7] has the same target. The assay is described as follows: competitive ELISA on coated human FAPα; competitor (detected): FAP-G52-Bio. As for the experimental part: as §3
Assay [8] has the same target. Put plainly: competitive ELISA on coated human FAPα; competitor (detected): FAP-I30-Bio. As for the experimental part: as §3
Assay [9] shares this target. Put plainly: competitive ELISA on coated human FAPα; competitor (detected): FAP-I37-Bio. As for the experimental part: as §2, §3
For assay [10] the target is unchanged. The assay is described as follows: competitive ELISA on coated human FAPα; competitor (detected): FAP-I38-Bio. As for the experimental part:
as §3

Assay [11] shares this target. The assay is described as follows: competitive ELISA on coated human FAPα; competitor (detected): FAP-J40-Bio. How it is done: as §3
Assay [12] shares this target. The assay is described as follows: competitive ELISA on coated human FAPα; competitor (detected): FAPα (BMK)-Bio. As for the experimental part:
as §3

Assay [13] shares this target. The assay is described as follows: competitive ELISA on coated human FAPα; biotinylated mAb alone, no competing Ab (row '0'). As for the experimental part:
as §3

B1: J59 (antibody, V domains shown)
VH: QVQLLESGGGVVQPGRSLRLSCAASGFTFSSYGMHWVRQAPGKGLEWVAVISYDGSNKYYADSVKGRFTISRDNSKNTLYLQMNSLRADDTAVYYCARESYTGLGSFLHWGQGTLVTVSA
VL: NIQLTQSPSSLSASVGDRVTITCRASQTISNYLNWYQQKPGKAPKLLISAASSLQGGVPSRFSGSGSGTDFTLAISSLQPEDSATYYCQYWGTFGQGTKLEIK
notes: Tested as a mAb
In general, EC50 refers to the concentration at which the effect is half-maximal. For orientation: Kd means a measure of binding affinity in units of concentration. In general, koff refers to the first-order rate constant of dissociation. The term kon denotes the second-order rate constant of association. In turn, B1 yielded an EC50 in assay [1] of 3.94 ng/mL. Moreover, the 50% effective concentration (EC50) in assay [2] was 0.029 ng/mL. The same molecule gave a Cmax in [3] of 149. In assay [4], this molecule returned a Kd of 1.78 nM, a koff of 0.000594 s⁻¹ and a kon of 333000 M⁻¹ s⁻¹. In [5], the binding result is on record as “no binding (tested: 1000 ng/ml)”.

B2: I38 (antibody, V domains shown)
VH: EVQLVQSGAEVKEPGVSVKVSCKASGYTFASYGLSWVRLAPGQGLQWMGWISPYTPNPIYAPNFRDKVILTTDRSTNTAYLEVRSLRSDDTGLYYCARNHWVGRPTRAFDLWGQGTMVTVSA
VL: EIVLTQSPGTLSLSPGERATLSCRASQTVSITHLAWYQQKPGQAPRLLTYGASARATGIPDRFSVSGSGTDFTLTITRLEPEDFAVYYCQHYGSSITFGGGTKVEIK
notes: Tested as a mAb; also called FAP-I38
For the molecule B2, the EC50 amounted to 4.89 ng/mL in assay [1] and 0.026 ng/mL in assay [2]. In addition, the Cmax in assay [3] worked out at 189. The “OD 450 nm” value in assay [6] stood at 0.149 OD 450 nm; in assay [7], 0.176 OD 450 nm; in [8], 0.22 OD 450 nm; in [9], 0.282 OD 450 nm; in [10] it was 0.396 OD 450 nm; in assay [11], 0.226 OD 450 nm. The “OD 450 nm” value came to 0.154 OD 450 nm in [12] and 1.21 OD 450 nm in assay [13]. This molecule registered a Kd in [4] of 1.12 nM. The koff in [4] came to 0.000116 s⁻¹. In assay [4], this molecule gave a kon of 103000 M⁻¹ s⁻¹.

B3: G52 (antibody, V domains shown)
VH: EVQLLESGGDLVQPGGSLRLSCAASGFTFSSYAMSWVRQAPGKGLEWVSGISNGGDSIAYADSVKGRFTVFRDNAKNTLYLQMNSLRAEDTAIYYCARGNYYAHDDWGQGTLVTVSA
VL: DIQLTQSPSSVSASVGDRVTITCRASQGVGSWLAWYQQKPGKPPKLLIYAASSLQSGVPSRFSGSGSGTDFTLTISSLQPEDFATYYCQQANSFPLTFGGGTKVEIK
notes: Tested as a mAb; also called FAP-G52; FAP-G52-Bio (biotin-conjugated form)
B3: in assay [1], the EC50 turned out to be 9.48 ng/mL. For the same molecule, the “OD 450 nm” value stood at 0.358 OD 450 nm in assay [6]; 0.283 OD 450 nm in assay [7]; 0.302 OD 450 nm in assay [8]; 0.399 OD 450 nm in assay [9]; 0.466 OD 450 nm in [10]; 0.298 OD 450 nm in assay [11]. Besides, the entries for the “OD 450 nm” value in [12] and in assay [13] were 0.304 OD 450 nm and 1.26 OD 450 nm, respectively. The molecule also came in with a Kd in assay [4] of 0.446 nM. In addition, the koff in [4] turned out to be 1.81e-05 s⁻¹. Further, in assay [4], the kon is 40500 M⁻¹ s⁻¹. Further, the binding result in assay [5] is “no binding (tested: 1000 ng/ml)”.
